These results are taken from patent US20190359693A1.

The labels stand for the following.
B1: SD3087 (VHH)
VHH: EVQLLESGGGLVQPGGSLRLSCAASGFTLENKAIGWFRQAPGKEREGVLCISKSGSWTYYADSVKGRFTISRDNSKNTVYLQMNSLRPEDTAVYYCATTTAGGGLCWDGTTFSRLASSWGQGTLVTVSS
B2: SD3085 (VHH)
VHH: EVQLVESGGGLVQPGGSLRLSCAASGFTFSTSWMYWLRQAPGKGLEWVSVINTDGGTYYADSVKGRFTISRDNSKNTLYLQMNSLRAEDTAVYYCAKDWGGPEPTRGQGTLVTVSS
B3: SD3092 (VHH)
VHH: EVQLVESGGGLVQPGGSLRLSCAISGLSLDTYAVGWFRQAPGKEREGVSCISSGHGMTYYADSVKGRFTISTDNSKNTLYLQMNSLRAEDTAVYYCATESRYYCSDNWPAPQRYIYWGQGTLVTVSS
B4: SD3093 (VHH)
VHH: B3 VHH with L79V
B5: MD1213 (VHH)
chain: EVQLVESGGGLVQAGGSLKLSCAASGRTYAMGWFRQAPGKEREFVAHINALGTRTYYSDSVKGRFTISRDNAKNTEYLEMNNLKPEDTAVYYCTAQGQWRAAPVAVAAEYEFWGQGTQVTVSSAAAGGGGSGGGGSGGGGSEVQLVESGGGLVQAGGSLKLSCAASGRTYAMGWFRQAPGKEREFVAHINALGTRTYYSDSVKGRFTISRDNAKNTEYLEMNNLKPEDTAVYYCTAQGQWRAAPVAVAAEYEFWGQGTQVTVSS
B6: MD1216 (bispecific antibody)
chain: EVQLVESGGGLVQPGGSLRLSCAVSISIFDIYAMDWYRQAPGKQRDLVATSFRDGSTNYADSVKGRFTISRDNAKNTLYLQMNSLKPEDTAVYLCHVSLYRDPLGVAGGMGVYWGKGALVTVSSAAAGGGGSGGGGSGGGGSGGGGSGGGGGGSGGGGSGGGGSGGGGSGGGGSGGGGSGGGGSEVQLVESGGGLVQAGGSLKLSCAASGRTYAMGWFRQAPGKEREFVAHINALGTRTYYSDSVKGRFTISRDNAKNTEYLEMNNLKPEDTAVYYCTAQGQWRAAPVAVAAEYEFWGQGTQVTVSS
B7: MD1214 (bispecific antibody)
chain: EVQLVESGGGLVQPGGSLRLSCAVSISIFDIYAMDWYRQAPGKQRDLVATSFRDGSTNYADSVKGRFTISRDNAKNTLYLQMNSLKPEDTAVYLCHVSLYRDPLGVAGGMGVYWGKGALVTVSSAAAGGGGSGGGGSGGGGSEVQLVESGGGLVQAGGSLKLSCAASGRTYAMGWFRQAPGKEREFVAHINALGTRTYYSDSVKGRFTISRDNAKNTEYLEMNNLKPEDTAVYYCTAQGQWRAAPVAVAAEYEFWGQGTQVTVSS
B8: MD1215 (VHH)
chain: EVQLVESGGGLVQAGGSLKLSCAASGRTYAMGWFRQAPGKEREFVAHINALGTRTYYSDSVKGRFTISRDNAKNTEYLEMNNLKPEDTAVYYCTAQGQWRAAPVAVAAEYEFWGQGTQVTVSSAAAGGGGSGGGGSGGGGSGGGGSGGGGGGSGGGGSGGGGSGGGGSGGGGSGGGGSGGGGSEVQLVESGGGLVQAGGSLKLSCAASGRTYAMGWFRQAPGKEREFVAHINALGTRTYYSDSVKGRFTISRDNAKNTEYLEMNNLKPEDTAVYYCTAQGQWRAAPVAVAAEYEFWGQGTQVTVSS
B9: MD2317 (bispecific antibody)
chain: EVQLVESGGGLVQPGGSLRLSCAVSISIFDIYAMDWYRQAPGKQRDLVATSFRDGSTNYADSVKGRFTISRDNAKNTLYLQMNSLKPEDTAVYLCHVSLYRDPLGVAGGMGVYWGKGALVTVSSGGGGSGGGGSEVQLVESGGGLVQAGDSLRISCAASGRTLSIYSMGWFRQAPGKEREFVATIGWNSGRTFYPDSLKGRFTISRDNARNTLYLQMNNLRPEDTAVYYCAAAKGPLRLSSQADYWGQGTQVTVSSGGGGSGGGGSEVQLVESGGGLVQPGGSLRLSCAATGFTLENKAIGWFRQTPGSEREGVLCISKSGSWTYYTDSMRGRFTISRDNAENTVYLQMDSLKPEDTAVYYCATTTAGGGLCWDGTTFSRLASSWGQGTQVTVSS
B10: MD2406 (VHH)
chain: EVQLVESGGGLVQPGGSLRLSCAVSISIFDIYAMDWYRQAPGKQRDLVATSFRDGSTNYADSVKGRFTISRDNAKNTLYLQMNSLKPEDTAVYLCHVSLYRDPLGVAGGMGVYWGKGALVTVSSGGGGSGGGGSEVQLVESGGGLVQPGGSLRLSCAVSISIFDIYAMDWYRQAPGKQRDLVATSFRDGSTNYADSVKGRFTISRDNAKNTLYLQMNSLKPEDTAVYLCHVSLYRDPLGVAGGMGVYWGKGALVTVSSGGGGSGGGGSEVQLVESGGGLVQPGGSLRLSCAVSISIFDIYAMDWYRQAPGKQRDLVATSFRDGSTNYADSVKGRFTISRDNAKNTLYLQMNSLKPEDTAVYLCHVSLYRDPLGVAGGMGVYWGKGALVTVSSGGGGSGGGGSEVQLVESGGGLVQPGGSLRLSCAVSISIFDIYAMDWYRQAPGKQRDLVATSFRDGSTNYADSVKGRFTISRDNAKNTLYLQMNSLKPEDTAVYLCHVSLYRDPLGVAGGMGVYWGKGALVTVSS
B11: MD2320 (bispecific antibody)
chain: EVQLVESGGGLVQAGDSLRISCAASGRTLSIYSMGWFRQAPGKEREFVATIGWNSGRTFYPDSLKGRFTISRDNARNTLYLQMNNLRPEDTAVYYCAAAKGPLRLSSQADYWGQGTQVTVSSGGGGSGGGGSEVQLVESGGGLVQPGGSLRLSCAVSISIFDIYAMDWYRQAPGKQRDLVATSFRDGSTNYADSVKGRFTISRDNAKNTLYLQMNSLKPEDTAVYLCHVSLYRDPLGVAGGMGVYWGKGALVTVSSGGGGSGGGGSEVQLVESGGGLVQPGGSLRLSCAATGFTLENKAIGWFRQTPGSEREGVLCISKSGSWTYYTDSMRGRFTISRDNAENTVYLQMDSLKPEDTAVYYCATTTAGGGLCWDGTTFSRLASSWGQGTQVTVSS
B12: MD2322 (VHH)
chain: EVQLVESGGGLVQPGGSLRLSCAVSISIFDIYAMDWYRQAPGKQRDLVATSFRDGSTNYADSVKGRFTISRDNAKNTLYLQMNSLKPEDTAVYLCHVSLYRDPLGVAGGMGVYWGKGALVTVSSGGGGSGGGGSEVQLVESGGGLVQPGGSLRLSCAVSISIFDIYAMDWYRQAPGKQRDLVATSFRDGSTNYADSVKGRFTISRDNAKNTLYLQMNSLKPEDTAVYLCHVSLYRDPLGVAGGMGVYWGKGALVTVSSGGGGSGGGGSEVQLVESGGGLVQPGGSLRLSCAVSISIFDIYAMDWYRQAPGKQRDLVATSFRDGSTNYADSVKGRFTISRDNAKNTLYLQMNSLKPEDTAVYLCHVSLYRDPLGVAGGMGVYWGKGALVTVSS
B13: MD2303 (bispecific antibody)
chain: EVQLVESGGGLVQPGGSLRLSCAVSISIFDIYAMDWYRQAPGKQRDLVATSFRDGSTNYADSVKGRFTISRDNAKNTLYLQMNSLKPEDTAVYLCHVSLYRDPLGVAGGMGVYWGKGALVTVSSGGGGSGGGGSEVQLVESGGGLVQAGGSLKLSCAASGRTYAMGWFRQAPGKEREFVAHINALGTRTYYSDSVKGRFTISRDNAKNTEYLEMNNLKPEDTAVYYCTAQGQWRAAPVAVAAEYEFWGQGTQVTVSSGGGGSGGGGSEVQLVESGGGLVQPGGSLRLSCAATGFTLENKAIGWFRQTPGSEREGVLCISKSGSWTYYTDSMRGRFTISRDNAENTVYLQMDSLKPEDTAVYYCATTTAGGGLCWDGTTFSRLASSWGQGTQVTVSS

Residue numbers refer to the chain shown, from its start.

The first test addresses hemagglutinin (HA) of influenza B/Florida/04/06 (Yamagata) (influenza B virus). The test can be described thus: cell-based or functional assay.
B1 showed a VNA IC50 of 160 nM.

Take B2: the VNA IC50 stood at 64 nM.

For B3, the VNA IC50 is above 1000 nM.

Molecule B4 displayed a VNA IC50 of 659 nM.

A further test has as its target hemagglutinin (HA) of influenza virus H1N1 A/California/07/09 (influenza A virus). The test can be described thus: cell-based or functional assay.
As to B5, the neutralization titer came to 2.4 nM.

For B6, the neutralization titer turned out to be 1.4 nM.

Molecule B7 showed a neutralization titer of 1.4 nM.

For the molecule B8, the neutralization titer worked out at 4.1 nM.

A further test addresses hemagglutinin (HA) of influenza virus H3N2 A/Wisconsin/67/05 (influenza A virus). The test is described as follows: cell-based or functional assay.
Molecule B5 displayed a neutralization titer of 18.6 nM.

As for B9, the average neutralization titer came to 12.8 nM.

Molecule B6 displayed a neutralization titer of 12.1 nM.

Molecule B10 came in with an average neutralization titer of 4.6 nM.

In turn, B11 yielded an average neutralization titer above 1000 nM.

On to B7, for which the neutralization titer turned out to be 12.5 nM.

The molecule B8 returned a neutralization titer of 34.1 nM.

As for B12, the average neutralization titer is 7.3 nM.

B13 had an average neutralization titer of 15 nM.

The target of a further test is hemagglutinin (HA) of influenza virus H1N1 A/New Caledonia/20/99 (influenza A virus). The test is described as follows: cell-based or functional assay.
On to B13, for which the average neutralization titer was found to be 7.2 nM.

Another test concerns the target hemagglutinin (HA) of influenza B/Massachusetts/02/12 (Yamagata) (influenza B virus). The test is described as follows: cell-based or functional assay.
As to B1, the VNA IC50 came to 104 nM.

For B2, the VNA IC50 was determined as 32 nM.

In turn, B3 came in with a VNA IC50 above 1000 nM.

For B4, the VNA IC50 was found to be 795 nM.

The target of a further test is hemagglutinin (HA) of influenza virus B/Florida/04/06 (Yamagata) (influenza B virus). The test is described as follows: cell-based or functional assay.
Take B13: the average neutralization titer worked out at 412 nM.

A further test concerns the target hemagglutinin (HA) of influenza B/Harbin/7/94 (Yamagata) (influenza B virus). The test is described as follows: cell-based or functional assay.
With B1, the VNA IC50 came to 201 nM.

In turn, B2 returned a VNA IC50 of 228 nM.

In turn, B3 showed a VNA IC50 above 1000 nM.

For B4, the VNA IC50 was above 1000 nM.

The target of another test is hemagglutinin (HA) of influenza B/Lee/40 (Old) (influenza B virus) (UniProt P03460). The test can be described thus: cell-based or functional assay.
Sequence of hemagglutinin (HA) of influenza B/Lee/40 (Old) (influenza B virus) (P03460 16-584 limits assumed): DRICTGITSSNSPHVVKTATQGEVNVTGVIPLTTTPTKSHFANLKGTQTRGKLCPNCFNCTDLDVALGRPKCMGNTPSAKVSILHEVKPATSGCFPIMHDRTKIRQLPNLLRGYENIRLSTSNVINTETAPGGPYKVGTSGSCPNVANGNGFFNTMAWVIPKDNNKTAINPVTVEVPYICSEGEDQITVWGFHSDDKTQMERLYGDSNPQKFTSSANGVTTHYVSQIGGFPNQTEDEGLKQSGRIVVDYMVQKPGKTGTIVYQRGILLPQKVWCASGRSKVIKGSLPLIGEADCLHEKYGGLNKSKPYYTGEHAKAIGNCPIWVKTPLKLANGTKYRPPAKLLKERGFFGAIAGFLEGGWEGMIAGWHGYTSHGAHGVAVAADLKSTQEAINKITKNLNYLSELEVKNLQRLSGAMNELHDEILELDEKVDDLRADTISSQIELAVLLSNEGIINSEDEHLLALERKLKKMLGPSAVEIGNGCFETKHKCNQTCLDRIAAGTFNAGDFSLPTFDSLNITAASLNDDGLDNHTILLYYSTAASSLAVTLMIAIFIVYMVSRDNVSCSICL
B1 showed a VNA IC50 of 91 nM.

Molecule B2 registered a VNA IC50 above 1000 nM.

In turn, B3 came in with a VNA IC50 of 40 nM.

Regarding B4, the VNA IC50 stood at 32 nM.

A further test deals with hemagglutinin (HA) of influenza virus H7N3 A/NIBRG/60 (A/mallard/Netherlands/12/00) (influenza A virus). The test is described as follows: cell-based or functional assay.
B9 showed an average neutralization titer of 12.8 nM.

The molecule B10 returned an average neutralization titer of 4.6 nM.

The molecule B11 registered an average neutralization titer of 15.3 nM.

Turning to B12, the average neutralization titer stood at 6.1 nM.

B13 had an average neutralization titer of 10.2 nM.

The target in the next test is hemagglutinin (HA) of influenza virus H7N7 A/PR8 H7N7-NY (influenza A virus). The test is described as follows: cell-based or functional assay.
In turn, B9 registered an average neutralization titer of 12.8 nM.

For the molecule B10, the average neutralization titer turned out to be 11 nM.

The molecule B11 returned an average neutralization titer of 15.3 nM.

B12: the average neutralization titer was determined as 14.7 nM.

B13 showed an average neutralization titer of 18.2 nM.

The target in another test is hemagglutinin (HA) of influenza B/Malaysia/2506/04 (Victoria) (influenza B virus). The test can be described thus: cell-based or functional assay.
The molecule B1 yielded a VNA IC50 of 81 nM.

Molecule B2 registered a VNA IC50 of 13 nM.

As for B3, the VNA IC50 was determined as 40 nM.

B4: the VNA IC50 was 40 nM.

Another test concerns the target hemagglutinin (HA) of influenza virus H1N1 A/Puerto Rico/8/34-MA (influenza A virus). The test is described as follows: cell-based or functional assay.
As for B5, the neutralization titer was 27.8 nM.

In turn, B6 had a neutralization titer of 9.7 nM.

B7 displayed a neutralization titer of 7.5 nM.

With B8, the neutralization titer was determined as 39.6 nM.

On to B13, for which the average neutralization titer came to 9.1 nM.

For the next test, the target named is hemagglutinin (HA) of influenza virus H5N1 A/Vietnam/1194/04 (influenza A virus). The test is described as follows: cell-based or functional assay.
B5 showed a neutralization titer below 1000 nM.

Turning to B6, the neutralization titer turned out to be 3.4 nM.

For B7, the neutralization titer was determined as 0.9 nM.

B8 returned a neutralization titer of 918 nM.

In turn, B13 returned an average neutralization titer of 9.1 nM.

Another test has as its target hemagglutinin (HA) of influenza virus H3N2 A/Brisbane/10/07 (influenza A virus). The test is described as follows: cell-based or functional assay.
For the molecule B13, the average neutralization titer is 12.8 nM.
